From article PMC9012472 (Science Advances, 2022) come the findings set out here.

This assay concerns the target T1, human Inturned (human, UniProt Q9ULD6 1-942).
T1 sequence (looked up): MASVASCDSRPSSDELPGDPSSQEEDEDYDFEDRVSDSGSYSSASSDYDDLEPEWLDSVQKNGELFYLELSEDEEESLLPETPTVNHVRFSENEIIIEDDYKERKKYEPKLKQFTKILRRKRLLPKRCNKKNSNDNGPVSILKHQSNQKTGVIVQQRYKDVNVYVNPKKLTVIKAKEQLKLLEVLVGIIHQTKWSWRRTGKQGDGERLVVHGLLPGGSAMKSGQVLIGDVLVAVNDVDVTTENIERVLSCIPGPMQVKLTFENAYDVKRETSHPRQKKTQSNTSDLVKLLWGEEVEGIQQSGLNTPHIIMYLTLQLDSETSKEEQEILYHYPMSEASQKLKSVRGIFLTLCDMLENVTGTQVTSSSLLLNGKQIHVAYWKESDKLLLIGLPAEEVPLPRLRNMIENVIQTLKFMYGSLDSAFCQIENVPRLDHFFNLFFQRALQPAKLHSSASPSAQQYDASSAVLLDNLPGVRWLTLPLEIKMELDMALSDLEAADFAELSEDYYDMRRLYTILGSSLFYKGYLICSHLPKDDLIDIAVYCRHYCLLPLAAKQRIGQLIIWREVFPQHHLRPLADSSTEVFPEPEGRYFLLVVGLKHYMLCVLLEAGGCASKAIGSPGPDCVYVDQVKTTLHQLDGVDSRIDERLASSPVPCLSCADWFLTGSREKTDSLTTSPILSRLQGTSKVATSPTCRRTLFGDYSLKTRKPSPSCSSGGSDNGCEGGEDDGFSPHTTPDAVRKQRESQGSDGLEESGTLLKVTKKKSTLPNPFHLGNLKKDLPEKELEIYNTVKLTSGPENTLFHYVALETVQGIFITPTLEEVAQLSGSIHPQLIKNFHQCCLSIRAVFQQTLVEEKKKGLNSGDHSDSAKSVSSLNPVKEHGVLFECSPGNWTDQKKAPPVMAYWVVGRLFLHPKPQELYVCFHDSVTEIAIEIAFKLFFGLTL
Description: cryo-EM structure.

B1: human Fuzzy (natural protein, UniProt Q9BT04 1-418, looked up)
chain: MGEEGTGGTVHLLCLAASSGVPLFCRSSRGGAPARQQLPFSVIGSLNGVHMFGQNLEVQLSSARTENTTVVWKSFHDSITLIVLSSEVGISELRLERLLQMVFGAMVLLVGLEELTNIRNVERLKKDLRASYCLIDSFLGDSELIGDLTQCVDCVIPPEGSLLQEALSGFAEAAGTTFVSLVVSGRVVAATEGWWRLGTPEAVLLPWLVGSLPPQTARDYPVYLPHGSPTVPHRLLTLTLLPSLELCLLCGPSPPLSQLYPQLLERWWQPLLDPLRACLPLGPRALPSGFPLHTDILGLLLLHLELKRCLFTVEPLGDKEPSPEQRRRLLRNFYTLVTSTHFPPEPGPPEKTEDEVYQAQLPRACYLVLGTEEPGTGVRLVALQLGLRRLLLLLSPQSPTHGLRSLATHTLHALTPLL
As for B1, the binding result is recorded as “binds”.

B2: human Wdpcp (natural protein, UniProt O95876 1-746, looked up)
chain: MRREFCWDAYSKAAGSRASSPLPRQDRDSFCHQMSFCLTELHLWSLKNTLHIADRDIGIYQYYDKKDPPATEHGNLEKKQKLAESRDYPWTLKNRRPEKLRDSLKELEELMQNSRCVLSKWKNKYVCQLLFGSGVLVSLSLSGPQLEKVVIDRSLVGKLISDTISDALLTDSFIILSFLAQNKLCFIQFTKKMESSDVNKRLEKLSALDYKIFYYEIPGPINKTTERHLAINCVHDRVVCWWPLVNDDAWPWAPISSEKDRANLLLLGYAQGRLEVLSSVRTEWDPLDVRFGTKQPYQVFTVEHSVSVDKEPMADSCIYECIRNKIQCVSVTRIPLKSKAISCCRNVTEDKLILGCEDSSLILYETHRRVTLLAQTELLPSLISCHPSGAILLVGSNQGELQIFDMALSPINIQLLAEDRLPRETLQFSKLFDASSSLVQMQWIAPQVVSQKGEGSDIYDLLFLRFERGPLGVLLFKLGVFTRGQLGLIDIIFQYIHCDEIYEAINILSSMNWDTLGHQCFISMSAIVNHLLRQKLTPEREAQLETSLGTFYAPTRPLLDSTILEYRDQISKYARRFFHHLLRYQRFEKAFLLAVDVGARDLFMDIHYLALDKGELALAEVARKRASDIDAESITSGVELLGPLDRGDMLNEAFIGLSLAPQGEDSFPDNLPPSCPTHRHILQQRILNGSSNRQIIDRRNELEKDICSGFLMTNTCNAEDGELREDGREQEIRDGGSLKMIHFGLV
Turning to B2, the binding result is “binds”.
